# Results from patent publication US11472875.
# T1: CM1-CM2 substrate 2003
# T1 chain: ISSGLLSGRSANPRG
# T2: CM1-CM2 substrate 2005
# T2 chain: AVGLLAPPSGRSANPRG
# B1: human matriptase (protein)
# chain: GSDEKDCDCGLRSFTRQARVVGGTDADEGEWPWQVSLHALGQGHICGASLISPNWLVSAAHCYIDDRGFRYSDPTQWTAFLGLHDQSQRSAPGVQERRLKRIISHPFFNDFTFDYDIALLELEKPAEYSSMVRPICLPDASHVFPAGKAIWVTGWGHTQYGGTGALILQKGEIRVINQTTCENLLPQQITPRMMCVGFLSGGVDSCQGDSGGPLSSVEADGRIFQAGVVSWGDGCAQRNKPGVYTRLPLFRDWIKENTGV
# Tests used:
# CM1-CM2 substrate 2003 = molecular target: T1, CM1-CM2 substrate 2003
# CM1-CM2 substrate 2005 = molecular target: T2, CM1-CM2 substrate 2005
# [1] = molecular target: anti-EGFR activatable antibodies comprising substrates 2001, 2006-2010 and 2012
protein,measurement,setting,value
B1,"cleavage kinetics, fold increase as compared to substrate 2001",CM1-CM2 substrate 2003,approximately a 50-fold increase
same,"cleavage kinetics, fold increase as compared to substrate 1004/LP′/0001",CM1-CM2 substrate 2005,approximately a 50-fold increase
same,kcat/Km,[1],a range of kcat/Km values ranging from 6E+02 to 2E+04
